In patent US6972178B1, “Drug screening using a proline-rich nuclear receptor co-regulatory protein/nuclear receptor co-expression system” (City of Hope, priority 1999, dated 2005):

Experiments:
SF1 [1] = molecular target: T1, SF1 (Bos taurus, UniProt Q04752); assay: Nuclear receptor transactivation, CAT reporter in SK-BR-3 cells; assay type: cell-based, bovine; set-up: The coding region for the wild type bovine SF1 was first subcloned into a yeast expression vector, pGBT9; expressed in transfected cells; host or cells: yeast (Y187, or Y187 x CG1945 diploids)
T1 sequence (Q04752 whole entry): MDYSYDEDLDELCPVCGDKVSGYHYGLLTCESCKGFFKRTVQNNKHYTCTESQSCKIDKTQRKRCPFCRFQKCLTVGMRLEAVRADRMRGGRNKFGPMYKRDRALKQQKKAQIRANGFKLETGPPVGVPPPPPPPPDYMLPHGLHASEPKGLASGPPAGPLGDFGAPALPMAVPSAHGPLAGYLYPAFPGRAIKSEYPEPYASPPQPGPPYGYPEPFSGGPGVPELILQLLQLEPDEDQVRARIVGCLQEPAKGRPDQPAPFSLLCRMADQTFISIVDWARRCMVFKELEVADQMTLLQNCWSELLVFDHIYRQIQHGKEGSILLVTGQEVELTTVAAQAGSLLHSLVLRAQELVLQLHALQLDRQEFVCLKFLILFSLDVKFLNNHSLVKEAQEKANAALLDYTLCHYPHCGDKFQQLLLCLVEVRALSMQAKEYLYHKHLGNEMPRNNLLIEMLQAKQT
Text: (§1) To examine the possible biological significance of this interaction, the entire PNRC coding region was inserted into a mammalian expression vector, pSG5, and this expression plasmid was used to transiently transfect SK-BR-3 cells along with a reporter plasmid, pUMS 1.3CAT-(SF1site)3, which contains three copies of extended steroid hormone half binding site from the human aromatase gene (5′-CCAAGGTCAGAA-3′ (SEQ ID NO:3)), promoter 1.3 of the human aromatase gene, and the CAT reporter gene, along with a second expression plasmid for either SF1 (pSG5-SF1) or ERRα1 (pSG5-ERRα1) (Yang et al., 1998).
(§2) Plasmid for overexpression of PNRC in mammalian cells was made by inserting PCR-amplified fragment with BclI at both ends into the BamHI site in pSG5 vector (Stratagene). To construct mammalian expression plasmids for bovine SF1 and human ERRα1, named pSG5-bSF1 and pSGS-hERRα1, the coding regions for SF1 and ERRα1 were amplified by PCR with an EcoRI site at both ends, and inserted into an EcoRI site of the pSG5 vector. The CAT reporter plasmid, pUMS1.3CAT-(SF1site)3, was prepared by inserting 3 copies of SF1 binding site from human aromatase gene, 5′-CCAAGGTCAGAA-3′ (SEQ ID NO:3), into pUMS-64/+5CAT (Zhou and Chen, 1999) through a HindIII site. […]

ERRα1 = molecular target: T2, ERRα1 (Homo sapiens, UniProt P11474); assay: as above; assay type: cell-based
T2 construct: inserting the PCR-amplified ERRA-1 coding region into pGBT9 through an EcoRI site; expressed in transfected cells; host or cells: yeast Y187 x CG1945 diploids
T2 sequence (P11474 1-423): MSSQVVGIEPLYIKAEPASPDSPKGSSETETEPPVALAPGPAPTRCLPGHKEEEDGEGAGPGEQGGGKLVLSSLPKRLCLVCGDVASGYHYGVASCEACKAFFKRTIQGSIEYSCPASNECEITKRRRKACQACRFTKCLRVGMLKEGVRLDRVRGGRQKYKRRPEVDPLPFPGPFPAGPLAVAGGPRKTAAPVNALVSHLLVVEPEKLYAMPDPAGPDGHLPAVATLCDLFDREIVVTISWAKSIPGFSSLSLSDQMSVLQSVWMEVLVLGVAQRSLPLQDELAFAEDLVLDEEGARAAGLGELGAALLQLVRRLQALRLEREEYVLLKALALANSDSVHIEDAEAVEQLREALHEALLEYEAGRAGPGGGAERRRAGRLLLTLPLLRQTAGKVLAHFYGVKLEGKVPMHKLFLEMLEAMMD
Text: as §1, §2

SF1 [2] = molecular target: T1, SF1; assay: Mammalian two-hybrid assay in SK-BR-3 cells (CAT reporter); assay type: cell-based, bovine; set-up: expressed in transfected cells; host or cells: SK-BR-3; details: pM-SF1 + pVP16-PNRC + pG5CAT
Procedure: The Mammalian MatchMaker two-hybrid assay system (Clontech) was used to confirm the interaction between PNRC and SF1 that was identified in the yeast assays. Because the assays are performed in mammalian cells, proteins are more likely to be in their native conformations, and the results are therefore more likely to represent biologically significant interactions. SK-BR-3 breast cancer cells were cotransfected with three expression plasmids, including pM-SF1 for Gal4 DNA-DB/SF1 fusion protein, pVP16-PNRC for VP16AD-PNRC fusion protein, and a third vector, pG5CAT, to provide the Gal4 DNA-binding site, a promoter, and the CAT reporter gene.
A set of plasmids, named pM-SF1, pVP16-PNRC, pVP16-PNRC270-327, and pVP16-PNRC278-300, for mammalian two-hybrid assays were prepared as follows: SF1 cDNA fragment was excised from pGBT9-SF1 and inserted in frame into Gal4 DNA-binding domain vector pM (Clontech) through an EcoRI site. PCR was used to generate PNRC full length coding region as well as the above mentioned deleted fragments with BclI at both ends. The PCR products were digested with BclI and inserted in proper reading frame into a pVP16 activation domain vector (Clontech) at a BamHI site. Mammalian two-hybrid assays in SK-BR-3 cells were performed according to the procedures described in the Clontech protocol (PT3002-1).

- CAT activity relative to cells transfected with only CAT reporter plasmid (SF1 [2]): 5-6 fold
Substance: PNRC: proline-rich nuclear receptor co-regulatory protein, 327 aa, SEQ ID NO:8, nuclear receptor coactivator
- effect on SF1-stimulated transcription by promoter 1.3 of the human aromatase gene (SF1 [1]): enhanced both SF1-stimulated and ERRα1-stimulated transcription
- effect on ERRα1-stimulated transcription by promoter 1.3 of the human aromatase gene (ERRα1): enhanced both SF1-stimulated and ERRα1-stimulated transcription
